Laboratory results: patent US9249224B2 (RINAT NEUROSCIENCE CORP., priority 2011, dated 2016)

Tests used:
IGF-1 = test: Serum IGF-1 levels in cynomolgus monkeys after a single antibody dose; format: in vivo, cynomolgus monkey
Procedure: Serum samples were analyzed for changes in IGF-1 levels compared to baseline using an R&D Systems™ Quantikine™ human IGF-1 immunoassay kit (cat. #DG100).
To determine if GHR antagonist monoclonal antibodies can affect IGF-1, IGFBP-3, and ALS levels in vivo by inhibiting the function of GHR, the effect of humanized anti-human GHR antibody SS1 was tested in cynomolgus monkeys. A dose-response study was conducted to test for changes in IGF-1, IGFBP-3, and ALS levels following a single dose of SS1. Eight naïve female cynomolgus monkeys were injected intravenously with a single dose of SS1 or negative control human IgG2, in 1×PBS 0.01% Tween™ 20. Two monkeys were dosed with 30 mg/kg SS1, two were dosed with 10 mg/kg SS1, two were dosed with 3 mg/kg SS1, and two were dosed with 30 mg/kg negative control human IgG2Δa on Day 1. Serum samples were taken from all animals at the following timepoints: pre-dose, 24 h, 48 h, 72 h, 120 h, 144 h, 192 h, 240 h, 336 h, 528 h, 696 h. Serum was also taken from the 30 mg/kg SS1 and negative control treated animals at 864 h post-dose.
Six naïve female cynomolgus monkeys were injected either intravenously or subcutaneously with a single dose of […] or negative control human IgG2Δa in 1×PBS 0.01% Tween™ 20. Two monkeys were dosed with 3 mg/kg SS1 intravenously, two were dosed with 3 mg/kg SS1 subcutaneously, and two were dosed with 3 mg/kg negative control human IgG2Δa subcutaneously on Day 1. Serum samples were taken from all animals at the following timepoints: pre-dose, 24 h, 72 h, 120 h, 168 h, 216 h, 264 h, 312 h, 360 h, 408 h, 456 h and 504 h.

human GHR = biological target: T1, human GHR (Homo sapiens, UniProt P10912, I544L); test: STAT5 phosphorylation in vitro assay, human GHR-transfected HEK293 cells; format: cell-based; details: for fluorescent signal ave (phospho-STAT5): Table 7, human GHR-transfected cells
T1 construct: expressed in transfected cells; host or cells: HEK293
T1 sequence (P10912 19-638 I544L): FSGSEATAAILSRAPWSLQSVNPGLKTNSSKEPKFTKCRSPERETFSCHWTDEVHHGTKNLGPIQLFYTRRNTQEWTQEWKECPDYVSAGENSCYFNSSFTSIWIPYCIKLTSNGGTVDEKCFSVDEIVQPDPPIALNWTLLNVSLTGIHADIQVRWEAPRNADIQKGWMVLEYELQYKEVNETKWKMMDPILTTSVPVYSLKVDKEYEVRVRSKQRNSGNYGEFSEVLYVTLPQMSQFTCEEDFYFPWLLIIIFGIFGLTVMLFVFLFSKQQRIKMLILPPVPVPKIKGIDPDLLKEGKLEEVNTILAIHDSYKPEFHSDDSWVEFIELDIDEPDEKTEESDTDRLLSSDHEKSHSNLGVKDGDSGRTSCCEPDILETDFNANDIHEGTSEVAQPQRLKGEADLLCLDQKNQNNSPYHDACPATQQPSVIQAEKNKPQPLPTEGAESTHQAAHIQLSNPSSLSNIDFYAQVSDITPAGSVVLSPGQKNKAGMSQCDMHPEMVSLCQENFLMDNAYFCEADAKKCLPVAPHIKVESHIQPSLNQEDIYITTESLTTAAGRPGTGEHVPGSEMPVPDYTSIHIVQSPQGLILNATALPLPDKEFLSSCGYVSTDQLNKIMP
Procedure: This Example illustrates the effect of GHR antibodies in an in vitro STAT5 phosphorylation assay. In this Example, the ability of GHR antibodies to block GHR downstream signaling was tested in vitro using human GHR overexpressing cells and cyno GHR overexpressing cells. […]
Antibodies SS3 and SS1 (hIgG2Δa) were tested using a STAT5 phosphorylation assay. For the STAT5 assay, full-length human GHR overexpressing HEK293 cells or full-length cyno GHR-overexpressing HEK293 cells were cultured, counted by automated cell counter, and seeded in warm freestyle media in 12-well plates (5×10^5 cells/well in 1 ml media). Cells were allowed to settle for 3 hours at 37° C. then treated with 2.5, 5, 50, or 500 nM of SS1 or SS3 in media.
Millipore™ lysis buffer with 1× protease inhibitor cocktail and sodium orthovanadate was added to each pellet at a volume of 100 ul/pellet Cells were vortexed and incubated for 15 minutes at room temp with occasional vortexing, Millipore™ Assay buffer 2 with 1× protease inhibitor cocktail and 1 mM sodium orthovanadate was then added to the lysates at 200 ul/well.
25 ul/well of sample lysate was added to the wells and the beads and samples were incubated overnight at 4′C with shaking in the dark. […]
The plate was read using a Luminex 200 instrument and florescent signal emitted from the samples was measured.

B1: SS1: humanized GHR antagonist antibody; VL SEQ ID NO: 7, VH SEQ ID NO: 8; hIgG2Δa heavy chain SEQ ID NO: 134, light chain SEQ ID NO: 135 (antibody)
heavy: EVQLVESGGGLVKPGGSLRLSCAASGFTFSDAWMDWVRQAPGKGLEWVAEIRSKANYHATYYAESVKGRFTISRDDSKNTLYLQMNSLKTEDTAVYYCTLIRDYWGQGTLVTVSSASTKGPSVFPLAPCSRSTSESTAALGCLVKDYFPEPVTVSWNSGALTSGVHTFPAVLQSSGLYSLSSVVTVPSSNFGTQTYTCNVDHKPSNTKVDKTVERKCCVECPPCPAPPVAGPSVFLFPPKPKDTLMISRTPEVTCVVVDVSHEDPEVQFNWYVDGVEVHNAKTKPREEQFNSTFRVVSVLTVVHQDWLNGKEYKCKVSNKGLPSSIEKTISKTKGQPREPQVYTLPPSREEMTKNQVSLTCLVKGFYPSDIAVEWESNGQPENNYKTTPPMLDSDGSFFLYSKLTVDKSRWQQGNVFSCSVMHEALHNHYTQKSLSLSPGK
light: EIVLTQSPGTLSLSPGERATLSCTATSSVSSSYLNWYQQKPGQAPRLLIYSTSNLASGIPDRFSGSGSGTDFTLTISRLEPEDFAVYYCHQYHRSTPTFGGGTKVEIKRTVAAPSVFIFPPSDEQLKSGTASVVCLLNNFYPREAKVQWKVDNALQSGNSQESVTEQDSKDSTYSLSSTLTLSKADYEKHKVYACEVTHQGLSSPVTKSFNRGEC
modifications: Humanized and/or affinity matured antibody sequence
serum IGF-1 levels (% change from baseline) (IGF-1; Table 10, cynomolgus monkeys, SS1 30 mg/kg IV single dose, 696 h post-injection): −70.4 +/− 1.1% | serum IGF-1 levels (% change from baseline) (IGF-1; Table 10, cynomolgus monkeys, SS1 30 mg/kg IV single dose, 864 h post-injection): −8.8 +/− 2.9% | serum IGF-1 levels (% change from baseline) (IGF-1; Table 13, cynomolgus monkeys, SS1 3 mg/kg IV single dose, 24 hour post-injection): −35 +/− 4.4% | serum IGF-1 levels (% change from baseline) (IGF-1; Table 13, cynomolgus monkeys, SS1 3 mg/kg IV single dose, 72 hour post-injection): −64.8 +/− 2.7% | serum IGF-1 levels (% change from baseline) (IGF-1; Table 13, cynomolgus monkeys, SS1 3 mg/kg IV single dose, 120 hour post-injection): −71.6 +/− 1.8% | serum IGF-1 levels (% change from baseline) (IGF-1; Table 13, cynomolgus monkeys, SS1 3 mg/kg IV single dose, 168 hour post-injection): −70.2 +/− 2.7% | serum IGF-1 levels (% change from baseline) (IGF-1; Table 13, cynomolgus monkeys, SS1 3 mg/kg IV single dose, 216 hour post-injection): −64.5% | serum IGF-1 levels (% change from baseline) (IGF-1; Table 13, cynomolgus monkeys, SS1 3 mg/kg IV single dose, 264 hour post-injection): −36.0% | serum IGF-1 levels (% change from baseline) (IGF-1; Table 13, cynomolgus monkeys, SS1 3 mg/kg IV single dose, 312 hour post-injection): −30.3% | serum IGF-1 levels (% change from baseline) (IGF-1; Table 13, cynomolgus monkeys, SS1 3 mg/kg IV single dose, 360 hour post-injection): −27.8% | serum IGF-1 levels (% change from baseline) (IGF-1; Table 13, cynomolgus monkeys, SS1 3 mg/kg SQ single dose, 24 hour post-injection): −46.7 +/− 9.9% | serum IGF-1 levels (% change from baseline) (IGF-1; Table 13, cynomolgus monkeys, SS1 3 mg/kg SQ single dose, 72 hour post-injection): −62.5 +/− 2.5% | serum IGF-1 levels (% change from baseline) (IGF-1; Table 13, cynomolgus monkeys, SS1 3 mg/kg SQ single dose, 120 hour post-injection): −68.7 +/− 2.8% | serum IGF-1 levels (% change from baseline) (IGF-1; Table 13, cynomolgus monkeys, SS1 3 mg/kg SQ single dose, 168 hour post-injection): −65.6 +/− 4.1% | serum IGF-1 levels (% change from baseline) (IGF-1; Table 13, cynomolgus monkeys, SS1 3 mg/kg SQ single dose, 216 hour post-injection): −60.7% | serum IGF-1 levels (% change from baseline) (IGF-1; Table 13, cynomolgus monkeys, SS1 3 mg/kg SQ single dose, 264 hour post-injection): −40.9% | serum IGF-1 levels (% change from baseline) (IGF-1; Table 13, cynomolgus monkeys, SS1 3 mg/kg SQ single dose, 312 hour post-injection): −15.3% | serum IGF-1 levels (% change from baseline) (IGF-1; Table 13, cynomolgus monkeys, SS1 3 mg/kg SQ single dose, 360 hour post-injection): −4.2% | time until which serum IGF-1 remained below 60% baseline levels (IGF-1; cynomolgus monkeys, 3 mg/kg SS1 either SQ or IV): about 216 hour | time until which serum IGF-1 remained substantially lower than baseline (IGF-1; cynomolgus monkeys, SS1 3 mg/kg IV single dose): 240 h | time until which serum IGF-1 remained substantially lower than baseline (IGF-1; cynomolgus monkeys, SS1 10 mg/kg IV single dose): 336 h | time until which serum IGF-1 remained substantially lower than baseline (IGF-1; cynomolgus monkeys, SS1 30 mg/kg IV single dose): 696 h | serum IGF-1 decrease below baseline levels (IGF-1; cynomolgus monkeys, single IV dose of 3, 10 or 30 mg/kg SS1, by 120 hours): about 75% | serum IGF-1 decrease below control (IGF-1; cynomolgus monkeys, single dose 3 mg/kg SS1 subcutaneous (SC) or intravenous (IV), by 72 hours): about 63% | effect on serum IGF-1 levels in cynomolgus monkeys (IGF-1; single IV dose, dose-response): dose dependently reduces serum IGF-1 levels | fluorescent signal ave (phospho-STAT5) (human GHR; 2.5 nM antibody + 4.5 nM GH): 60 | fluorescent signal ave (phospho-STAT5) (human GHR; 5 nM antibody + 4.5 nM GH): 22 | fluorescent signal ave (phospho-STAT5) (human GHR; 50 nM antibody + 4.5 nM GH): 0 | fluorescent signal ave (phospho-STAT5) (human GHR; 500 nM antibody + 4.5 nM GH): 5 | effect on GH-stimulated STAT5 signaling (human GHR; cells expressing human GHR, 4.5 nM GH): blocked STAT5 signaling in a dose-dependent manner
